{"source": "the nanobody polyreactivity screen of Harvey et al. (2022)", "data": [{"test": "yeast display, Sf9 membrane polyspecificity reagent, FACS + sequencing; frameworks hold sequencing errors", "method_in_brief": "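Sorting gates, low and high (top ~1%), were placed on anti-HA fluorescence to track expression and on streptavidin fluorescence to track reagent binding. A clone's polyreactivity label is taken from the gate it came out of. The reagent was 10% biotinylated, detergent-solubilized Sf9 membrane, applied for 1 hour at 4 °C to galactose-induced yeast display cells.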", "values": [{"sequence": "QVQLVESGGGLVQAGGSLRLSCAASGIIFWWYAMGWYRQAPGKERELVAAISGTGGSTYYADSVKGRFTISRDNAKNTVYFQMNSLKPEDTAVYYCAARGKSSSYYDYDYWGQGTQVTVSS", "polyreactivity (PSR sort gate)": "low polyreactivity"}, {"sequence": "QVQLVESGGGLVQAGGSLRLSCAASGIIFWYNAMGWYRQAPGKERELVASISTGGRTYYADSVKGRFTISRDNAKYTVYLQMNSLKPEDTAVYYCAAASRVGFLYYYWGQGTQVTVSS", "polyreactivity (PSR sort gate)": "low polyreactivity"}, {"sequence": "QVQLVESGGGLVQAGGSLRLSCAASGIIFWYYAMVWYRHAPGKERELVASISGTGGTTYYADSVKGRFTISRDNAKNTVYLQMNSLKPEDTAVYDCSALSGQHDYDYWGQGTQVTVSS", "polyreactivity (PSR sort gate)": "low polyreactivity"}, {"sequence": "QVQLVESGGGLVQAGGSLRLSCAASGIIFYANAMGWYRQAPGKERELVAAISWSGSSTYYADSVKGRFTISRDNAKNTVYLQMNSLKPEDTAVYYCNKATSSVRYLKYYYWGQGTQVTVSS", "polyreactivity (PSR sort gate)": "high polyreactivity"}, {"sequence": "QVQLVESGGGLVQAGGSLRLSCAASGIIFYAYAMGWYRQAPGKEREFVAAINNSGGRTYYADSVKGRFTISRDNAKNTVYLQMNSLKPEDTAVYYCAVYSYYRRTYRREMDYWGQGTQVTVSS", "polyreactivity (PSR sort gate)": "high polyreactivity"}, {"sequence": "QVQLVESGGGLVQAGGSLRLSCAASGIIFYAYDMGWYRQAPGKERELVAAITFSAVSTYYADSVKGRFTISRDNAKNTVYLQMNSLKPEDTAVYYCAAEAYKHGVWDYDYWGQGTQVTVSS", "polyreactivity (PSR sort gate)": "low polyreactivity"}, {"sequence": "QVQLVESGGGLVQAGGSLRLSCAASGIIFYEYTMGWYRQAPGKERELVARISLRGGNTYYADSVKGRFTISRDNAKNTVYLQMNSLKPEDTAVYYCNADLYRQYASRYHYWGQGTQVTVSS", "polyreactivity (PSR sort gate)": "high polyreactivity"}, {"sequence": "QVQLVESGGGLVQAGGSLRLSCAASGIIFYEYVMGWYRQAPGKERELVAAINRSGGSTYYADSVKGRFTISRDNAKNTVYLQMNSLKPEDTAVYYCAASSTYDGRKYYYWGQGTQVTVSS", "polyreactivity (PSR sort gate)": "high polyreactivity"}, {"sequence": "QVQLVESGGGLVQAGGSLRLSCAASGIIFYGNAMGWYRQAPGKERELVAAISWSGSSTYYADSVKGRFTISRDNAKNTVYLQMNSLKPEDTAVYYCNKATSSVRYLKYYYWGQGTQVTVSS", "polyreactivity (PSR sort gate)": "high polyreactivity"}, {"sequence": "QVQLVESGGGLVQAGGSLRLSCAASGIIFYGNAMGWYRQAPGKERELVAAITWSGGSTYYADSVKGRFTISRDNAKNTVYLQLTSLKPEDTAVYYCAADFLYGFYYWGQGTQVTVSS", "polyreactivity (PSR sort gate)": "low polyreactivity"}, {"sequence": "QVQLVESGGGLVQAGGSLRLSCAASGIIFYGYAMGWYRQAPGKERELVAAISSGGGTNYADSVKGRFTISRDNAKNTVYLQMNSLKPEDTAVYYCAAGGKKRDDYWGQGTQVTVSS", "polyreactivity (PSR sort gate)": "high polyreactivity"}, {"sequence": "QVQLVESGGGLVQAGGSLRLSCAASGIIFYGYAMGWYRQAPGKERELVATIRDSGAGTYYADSVKGRFTISRDNAKNTVYLQMNSLKPEDTAVYYCAATGWIRYDSWGQGTQVTVSS", "polyreactivity (PSR sort gate)": "low polyreactivity"}, {"sequence": "QVQLVESGGGLVQAGGSLRLSCAASGIIFYHNTMGWYRQAPGKERELVAAISGSGGSTYYADSVKGRFTISRDNEKNTVYLQMKSLKPEDTAVYYCAAYRRRYPGFDYWGQGTQVTVSS", "polyreactivity (PSR sort gate)": "high polyreactivity"}, {"sequence": "QVQLVESGGGLVQAGGSLRLSCAASGIIFYHYAMGWYRQPPGKERELVAAITWSGGTTYYADSVKGRFTISRDNAKNTVYLQMNSMKPEDTAVYYCNADYVPYGFDYWGQGTQVTVSS", "polyreactivity (PSR sort gate)": "low polyreactivity"}, {"sequence": "QVQLVESGGGLVQAGGSLRLSCAASGIIFYIYAMGWYRQAPGKERELVAAISSGGNTYYADSVKGRFTISRDNAKNTVYLQMNSLKPEDTAVYYCAAYSRKVSFQYRYDYWGQGTQVTVSS", "polyreactivity (PSR sort gate)": "high polyreactivity"}, {"sequence": "QVQLVESGGGLVQAGGSLRLSCAASGIIFYIYAMGWYRQAPGKERELVAAITSSGGSTNYADSVKGRFTISRDNAKNTVYLQMNSLKPEDTAVYYCAAAYRPWQEFYWGQGTQVTVSS", "polyreactivity (PSR sort gate)": "high polyreactivity"}, {"sequence": "QVQLVESGGGLVQAGGSLRLSCAASGIIFYIYTMGWYRQAPGKERELVAAINRSGFRTYYADSVKGRFTISRDNAKNTVYLQMNSLKPEDTAVYYCAAGTGSRDYYWGQGTQVTVSS", "polyreactivity (PSR sort gate)": "high polyreactivity"}, {"sequence": "QVQLVESGGGLVQAGGSLRLSCAASGIIFYIYTMGWYRQAPGKERELVAAINRSGSRTYYADSVKGRFTISRDNAKNTVYLQMNSLKPEDTAVYYCAAGTGSRDDYWGQGTQVTVSS", "polyreactivity (PSR sort gate)": "high polyreactivity"}, {"sequence": "QVQLVESGGGLVQAGGSLRLSCAASGIIFYKYAMGWYRQAPGKERELVAAITSGGGRTYYADSVKGRFTISRDNPKNSVYLQMNSLKPEDTAVYYCAATRPATYAAYDYWGQGTQVTVSS", "polyreactivity (PSR sort gate)": "high polyreactivity"}, {"sequence": "QVQLVESGGGLVQAGGSLRLSCAASGIIFYKYTMGWYRQAPGKERELVAAITKSGVRTYYADSVKGRFTISRDNAKNTVYLQMKSLKPEDTSVYYCAAKTPTKDRGSDFDYWGQGTQVTVSS", "polyreactivity (PSR sort gate)": "high polyreactivity"}, {"sequence": "QVQLVESGGGLVQAGGSLRLSCAASGIIFYPNAMGWYRQAPGKERELVAAITGSGGSTYYADSVKGRFTISRDNAKNTVYLQMNSLKPEDTAVYYCNARVYWYYPMDYWGQGTQVTVSS", "polyreactivity (PSR sort gate)": "low polyreactivity"}, {"sequence": "QVQLVESGGGLVQAGGSLRLSCAASGIIFYQYAMGRNRQAPGKERELVAAISSGVNTYYADSVKGRFTISRDNAKNTVYLQMNSLKPEDTAVYYCAAEKGRLYDWFDIYYIEYYYWGQGTQVTVSS", "polyreactivity (PSR sort gate)": "high polyreactivity"}, {"sequence": "QVQLVESGGGLVQAGGSLRLSCAASGIIFYQYAMGWYRQAPGKERELVAAINTSGGSTYADSVKGRFTISRDNAKNTVYLQMNSLKPEDTAVYYCAASYRYVRWKWGYNYWGQGTQVTVSS", "polyreactivity (PSR sort gate)": "high polyreactivity"}, {"sequence": "QVQLVESGGGLVQAGGSLRLSCAASGIIFYRNAMGWYRQAPGKERELVAGITSGGSTYYADSVKGRFTISRDNAKNTVYLQMNSLKPEYTAVYYCAAYYRASQRYLQYGYWGQGTQVTVSS", "polyreactivity (PSR sort gate)": "high polyreactivity"}, {"sequence": "QVQLVESGGGLVQAGGSLRLSCAASGIIFYRYAMGWYRQAPGKERELVAAISASGDSTYYADSVKGRFTISRDNAKNTVYLQMNSLKPEDTAVYYCAADYGYRYDYWGQGTQVTVSS", "polyreactivity (PSR sort gate)": "low polyreactivity"}, {"sequence": "QVQLVESGGGLVQAGGSLRLSCAASGIIFYRYAMGWYRQAPGKERELVSAITWSGVSTSYADSVKGRFTISRDNAKNTVYLQMNSLKPEDTAVYYCAATNYGTFWGGQSERYDYWGQGTQVTVSS", "polyreactivity (PSR sort gate)": "low polyreactivity"}, {"sequence": "QVQLVESGGGLVQAGGSLRLSCAASGIIFYRYAMGWYRQAPGKESELVAAITWSGVSTSYADSVKGRFTISRDNAKNTVYLQMNSLKPEDTAVYYCNKDPGTLYGDMDSWGQGTQVTVSS", "polyreactivity (PSR sort gate)": "low polyreactivity"}, {"sequence": "QVQLVESGGGLVQAGGSLRLSCAASGIIFYRYAMGWYRQAPGKEWELVAAITWRGGSTYYADSVKGRFTISRDNAKNTVYLQMTSLKPEDTAVYYCAARRRATYEFDYWGQGTQVTVSS", "polyreactivity (PSR sort gate)": "high polyreactivity"}, {"sequence": "QVQLVESGGGLVQAGGSLRLSCAASGIIFYSNTMGWYRQAPGKERELVAGISRSGSSTYYADSVKGRFTISRDIAKNTVYLQMNSLKPEDTAVYYCADYRYGVTNAYGYWGQGTQVTVSS", "polyreactivity (PSR sort gate)": "high polyreactivity"}, {"sequence": "QVQLVESGGGLVQAGGSLRLSCAASGIIFYSNTMGWYRQAPGKERELVAGISRSGSSTYYADSVKGRFTISRDNAKNTVYLQMNSLKPEDTAVYYCAAYRYGVTNAYGYWGQGTQVTVSS", "polyreactivity (PSR sort gate)": "high polyreactivity"}, {"sequence": "QVQLVESGGGLVQAGGSLRLSCAASGIIFYSYAMGWYRQAPGKERELVAAISWSGGSTYYADSVKGRFTISRDNAKNTVYLQMNSLKPEDTAVYYCAKDGYPYLSWLRSAHYDYWGQGTQVTVSS", "polyreactivity (PSR sort gate)": "low polyreactivity"}, {"sequence": "QVQLVESGGGLVQAGGSLRLSCAASGIIFYVNAMGWYRPAPGKDRELVAAITFGGDSTYYADSVKGRFTITRDNAKNTVYLQMNSLKQEDTAVYYWAAEGLSLGGYYYWGQGTQVTVSS", "polyreactivity (PSR sort gate)": "low polyreactivity"}, {"sequence": "QVQLVESGGGLVQAGGSLRLSCAASGIIFYWNAMGWYRQAPGKEREFVASISGSGGSTYADSVKGRFTISRDNAKKTVYLQMNSLKPEDTAVYYCAADFSNVGVQHDYYWGQGTQVTVSS", "polyreactivity (PSR sort gate)": "high polyreactivity"}, {"sequence": "QVQLVESGGGLVQAGGSLRLSCAASGIIFYYYAMGWYRQAPGKERELVACISYSGGSTYADSVKGRFTISRDNAKNTVYLQMNSLKPEDTAVYYCAADYDYGGHWYDYWGQGTQVTVSS", "polyreactivity (PSR sort gate)": "low polyreactivity"}, {"sequence": "QVQLVESGGGLVQAGGSLRLSCAASGIIFYYYGKGWYRQAPGKEREFVAAISTSGGNTYYADSVKGRFTISRDNAKNTVYLQMNSLKPEDTAVYYCAADDWPWGDAGVDYWGQGTQVTVSS", "polyreactivity (PSR sort gate)": "low polyreactivity"}, {"sequence": "QVQLVESGGGLVQAGGSLRLSCAASGIIFYYYTIGWYRPAPGKERELVASITWSGGGSTYYADSVKGRFTISRDNAKNTVYLQMNCLNPEDTAVYYCNADEYYSYYYWGQGTQVTVSS", "polyreactivity (PSR sort gate)": "low polyreactivity"}, {"sequence": "QVQLVESGGGLVQAGGSLRLSCAASGIIFYYYTMGWYRQAPGKERELVAAISFSGSNTYYADSVKGRFTISRDNAKNTVYLQMNSLKPEDTAVYYCAARARKDSNRRTYGYWGQGTQVTVSS", "polyreactivity (PSR sort gate)": "high polyreactivity"}, {"sequence": "QVQLVESGGGLVQAGGSLRLSCAASGIIFYYYTMGWYRQAPGKERELVASISRDGGSTHYADSVKGRFTISRDNAKNTVYLLMNSLKPEDTAVYYCAARDPTGSSYAFYRRKVYYWGQGTQVTVSS", "polyreactivity (PSR sort gate)": "high polyreactivity"}, {"sequence": "QVQLVESGGGLVQAGGSLRLSCAASGIIIKNYSMGWYRQAPGKEREFVAAISYSGTNTYYADSVKGRFTISRDYAKNTVYLQMNSLKPEDTAVYYCARRKTVVYLAGGRRDYYSWGQGTQVTVSS", "polyreactivity (PSR sort gate)": "high polyreactivity"}, {"sequence": "QVQLVESGGGLVQAGGSLRLSCAASGIIILEYVMGSYRQAPGKERELVAAINSGGSTYYADSVKGRFTISRDNAKNTVYLQMNSLKPEDTAVYYCAADDYYKFDYWGQGTQVTVSS", "polyreactivity (PSR sort gate)": "low polyreactivity"}, {"sequence": "QVQLVESGGGLVQAGGSLRLSCAASGIIIQYYAMGWYRQAPGKERELVATITLRGGITYYADSVKGRFTISRDNAKNTVYLQMNCLKPEDTAVYYCNTDQGTTSDYGYWGQGTQVTVSS", "polyreactivity (PSR sort gate)": "low polyreactivity"}]}]}
